Test results published in patent US20150152192A1 (SAMSUNG ELECTRONICS, published 2015).

T1: Ang2 with K468 mutated with alanine, tagged with FLAG (human, UniProt O15123 19-496, limits assumed)
T1 sequence: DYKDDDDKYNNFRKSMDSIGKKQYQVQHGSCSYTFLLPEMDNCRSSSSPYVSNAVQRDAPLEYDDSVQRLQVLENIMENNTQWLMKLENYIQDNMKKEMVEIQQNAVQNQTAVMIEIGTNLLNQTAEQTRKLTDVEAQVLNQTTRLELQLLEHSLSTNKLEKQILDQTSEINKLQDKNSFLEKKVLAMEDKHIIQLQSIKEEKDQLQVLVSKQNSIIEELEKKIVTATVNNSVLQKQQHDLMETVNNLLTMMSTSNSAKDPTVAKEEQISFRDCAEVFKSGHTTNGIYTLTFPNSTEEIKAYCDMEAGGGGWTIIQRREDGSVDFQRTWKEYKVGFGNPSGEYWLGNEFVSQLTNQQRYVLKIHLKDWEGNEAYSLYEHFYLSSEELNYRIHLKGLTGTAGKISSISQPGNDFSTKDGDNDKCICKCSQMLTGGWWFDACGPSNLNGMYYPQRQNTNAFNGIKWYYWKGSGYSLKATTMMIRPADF

T2: FLAG-Tagged hAng2 (human, UniProt O15123 19-496, limits assumed)
T2 construct: also called FLAG-Ang2; non-mutated Ang2
T2 sequence: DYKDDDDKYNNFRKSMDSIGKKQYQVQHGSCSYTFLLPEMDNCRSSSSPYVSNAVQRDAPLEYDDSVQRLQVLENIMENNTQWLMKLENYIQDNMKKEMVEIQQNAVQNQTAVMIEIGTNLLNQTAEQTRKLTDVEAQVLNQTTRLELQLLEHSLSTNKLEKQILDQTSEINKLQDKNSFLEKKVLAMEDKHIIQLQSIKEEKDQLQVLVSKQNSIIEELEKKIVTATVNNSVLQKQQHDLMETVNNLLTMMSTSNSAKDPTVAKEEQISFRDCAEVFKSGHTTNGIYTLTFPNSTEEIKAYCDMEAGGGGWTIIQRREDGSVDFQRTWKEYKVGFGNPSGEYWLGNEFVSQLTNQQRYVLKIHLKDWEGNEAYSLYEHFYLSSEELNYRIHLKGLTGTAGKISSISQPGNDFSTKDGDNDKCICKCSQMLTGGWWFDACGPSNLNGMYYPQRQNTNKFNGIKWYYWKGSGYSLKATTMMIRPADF


Assays:
[1] = target: T1, Ang2 with K468 mutated with alanine, …; experiment: ELISA, scFv coated, 250 ng FLAG-tagged Ang2 mutant, anti-FLAG-HRP
Protocol: A 96-well MaxiSorp™ flat-bottom plate (Nunc) was coated with 50 μl of the anti-Ang2 scFv selected above. After that, the plate was washed five times with 0.05% (v/v) Tween-20-containing PBS and then blocked with 1% (v/v) BSA-containing PBS at a room temperature for 2 hours. […] Thereafter, the plate was washed five times with 0.05% Tween-20-containing PBS and then, an HRP-conjugated anti-FLAG antibody (SIGMA) diluted in 1% (v/v) BSA-containing PBS at 1:5,000 ratio (v/v) was added in the amount of 50 μl to each well to react at a room temperature for 1 hour, followed by washing five times with 0.1% (v/v) Tween-20-containing PBS.
Finally, 100 μl of TMB substrate (cell signal) was added to each well of the plate to induce color development and then, the reaction was ceased by the addition of 50 μl of 5N H₂SO₄ solution and OD450 values were measured on a plate reader (Molecular Devices).

[2] = target: T2, FLAG-Tagged hAng2; experiment: competitive ELISA: hTie2-Fc coated, 400 ng/ml FLAG-hAng2 plus scFv, anti-FLAG-HRP
Protocol: To verify molecular interaction of the bound assemblies, a competitive ELISA was performed. A 96-well MaxiSorp™ flat-bottom plate (Nunc) was coated with […] of hTie2-Fc (R&D Systems), which is a protein with the Fc of human IgG1 bound thereto. After that, the plate was washed five times with 0.05% (v/v) Tween-20-containing PBS (Phosphate Buffer Saline) and then blocked with 1% (v/v) BSA (Bovine serum albumin; Sigma)-containing PBS at a room temperature for 2 hours.
Thereafter, the plate was washed five times with 0.05% Tween-20-containing PBS and then, an HRP-conjugated anti-FLAG antibody (SIGMA) diluted in 1% (v/v) BSA-containing PBS at 1:5,000 ratio (v/v) was added in the amount of 100 μl (microliter) to each well to react at a room temperature for 1 hour, followed by washing five times with 0.1% (v/v) Tween-20-containing PBS. Finally, 100 μl (microliter) of TMB substrate (cell signal) was added to each well of the plate to induce color development at a room temperature for 3 min. Then, the reaction was ceased by the addition of 50 μl of 5N H₂SO₄ solution and OD450 values were measured on a plate reader (Molecular Devices).

[3] = target: Ang2 with A449 mutated with alanine, tagged with FLAG (human) (UniProt O15123); experiment: ELISA, scFv coated, 250 ng FLAG-tagged Ang2 mutant, anti-FLAG-HRP

| Binder | Relative binding (%) with Mutant Ang2 compared to the binding with native Ang2 [1] [%] | IC50 [2] [nM] | Relative binding (%) with Mutant Ang2 compared to the binding with native Ang2 [3] [%] |
| --- | --- | --- | --- |
| SAIT-ANG-2-AB-2-E6 (scFv form) (scFv, V domains shown, scFv from a phage display library, partly purified from E. coli periplasm on Ni-NTA and detected with anti-HA) VH: EVQLLESGGGLVQTGGSLRLSCAASGFTFSDYAMSWVRQAPGKGLEWVSAIYPDSGNKYYADSVKGRFTISRDNSKNTLYLQMNSLRAEDTAVYYCARHSSDPKVKSGYYDDGMDVWGQGTLVAVSS VL: QSVLTQPPSASGTPGQRVTISCSGSSSNIGNNAVNWYQQLPGTAPKLLIYADSNRPSGVPDRFSGSKSGTSASLAISGLRSEDEADYYCGSWDYSLSGYVFGGGTKLTVLG | 94 | 18.9 | 3.3 |
| SAIT-ANG-2-AB-3-D3 (scFv form) (scFv, V domains shown, scFv from a phage display library) VH: EVQLLESGGGLVQPGGSLRLSCAASGFTFSDYDMSWVRQAPGKGLEWVSGISSDDGNTYYADSVKGRFTISRDNSKNTLYLQMNSLRAEDTAVYYCARPTIDKYTLRGYYSYGMDVWGQGTLVTVSS VL: QSVLTQPPSASGTPGQRVTISCTGSSSNIGSNYVSWYQQLPGTAPKLLIYSDNKRPSGVPDRFSGSKSGTSASLAISGLRSEDEADYYCGTWDDSLNGYVFGGGTKLTVLG | 95.9 | 9.9 | 101 |
| SAIT-ANG-2-AB-4-F11 (scFv form) (scFv, V domains shown, scFv from a phage display library) VH: EVQLLESGGGLVQTGGSLRLSCAASGFTFSDYAMSWVRQAPGKGLEWVSSIYPDDGNTYYADSVKGRFTISRDNSKNTLYLQMNSLRAEDTAVYYCAKHPVRLNLHPMYYYYGMDVWGQGTLVTVSS VL: QSVLTQPPSASGTPGQRVTISCTGSSSNIGNNAVSWYQQLPGTAPKLLIYSDSQRPSGVPDRFSGSKSGTSASLAISGLRSEDEADYYCATWDYSLSAYVFGGGTKLTVLG | 102 | 6.6 | 16.7 |
| SAIT-ANG-2-AB-7-C9 (scFv form) (scFv, V domains shown, scFv from a phage display library) VH: EVQLLESGGGLVQPGGSLRLSCAASGFTFSNYAMSWVRQAPGKGLEWVSAISSGGGNIYYADSVKGRFTISRDNSKNTLYLQMNSLRAEDTAVYYCAKSGIQPSPPSMSSAYAMDVWGQGTLVTVSS VL: QSVLTQPPSASGTPGQRVTISCSGSSSNIGNNDVYWYQQLPGTAPKLLIYANSHRPSGVPDRFSGSKSGTSASLAISGLRSEDEADYYCGTWDYSLSGYVFGGGTKLTVLG | 97.3 | 39.7 | 14.5 |
| SAIT-ANG-2-AB-4-F5 (scFv form) (scFv, V domains shown, scFv from a phage display library) VH: EVQLLESGGGLVQPGGSLRLSCAASGFTFSDYDMSWVRQAPGKGLEWVSSISHGDSNKYYADSVKGRFTISRDNSKNTLYLQMNSLRAEDTAVYYCAKSSGIQESPPTYYYYGMDVWGQGTLVTVSS VL: QSVLTQPPSASGTPGQRVTISCSGSSSNIGSNAVNWYQQLPGTAPKLLIYADSNRPSGVPDRFSGSKSGTSASLAISGLRSEDEADYYCGSWDYSLSGYVFGGGTKLTVLG | 87.4 | 10 | 14 |
| SAIT-ANG-2-AB-8-A5 (scFv form) (scFv, V domains shown, scFv from a phage display library) VH: EVQLLESGGGLVQPGGSLRLSCAASGFTFSDYYMSWVRQAPGKGLEWVSGIYPSGGSTYYADSVKGRFTISRDNSKNTLYLQMNSLRAEDTAVYYCARDPSTLTYAGFDYWGQGTLVTVSS VL: QSVLTQPPSASGTPGQRVTISCSGSSSNIGNNYVTWYQQLPGTAPKLLIYADSHRPSGVPDRFSGSKSGTSASLAISGLRSEDEADYYCATWDYSLSGYVFGGGTKLTVLG | 101 | 36.3 |  |
| SAIT-ANG-2-AB-4-C11 (scFv form) (scFv, V domains shown, scFv from a phage display library) VH: EVQLLESGGGLVQPGGSLRLSCAASGFTFSDYAMSWVRQAPGKGLEWVSSIYPDDGNTYYADSVKGRFTISRDNSKNTLYLQMNSLRAEDTAVYYCARHTSHHTSIDGYYYYGMDGWGQGTLVTVSS VL: QSVLTQPPSASGTPGQRVTISCTGSSSNIGNNDVSWYQQLPGTAPKLLIYSDSKRPSGVPDRFSGSKSGTSASLAISGLRSEDEADYYCGSWDYSLSGYVFGGGTKLTVLG | 94.8 | 6.5 | 4.8 |
